{"source": "the supplement of paper PMC10567573", "parents": {"B1": {"name": "PPEF2 (parent)", "chain": "DHSGFISLDEFRQTWKLFSSHMNI"}}}
{"variants_of": "B1", "assay": "protein stability index of a GFP-peptide fusion (GPS, HEK-293T) (PSI 1-6); higher = more stable", "conditions": "c terminus: a fixed tail appended"}
{"variant": "DHSGFISLDEFRQTWKLFSSHMYI", "note": "[N23Y]", "protein stability index": 2.57}
{"variant": "DHSGFISLDEFRQTWKLFSSHMWI", "note": "[N23W]", "protein stability index": 2.08}
{"variant": "DHSGFISLDEFRQTWKLFSSHMQI", "note": "[N23Q]", "protein stability index": 1.86}
{"variant": "DHSGFISLDEFRQTWKLFSSHMKI", "note": "[N23K]", "protein stability index": 1.96}
{"variant": "DHSGFISLDEFRQTWKLFSSHMPI", "note": "[N23P]", "protein stability index": 1.84}
{"variant": "DHSGFISLDEFRQTWKLFSSHMII", "note": "[N23I]", "protein stability index": 2.18}
{"variant": "DHSGFISLDEFRQTWKLFSSHMMI", "note": "[N23M]", "protein stability index": 2.57}
{"variant": "DHSGFISLDEFRQTWKLFSSHMFI", "note": "[N23F]", "protein stability index": 3.35}
{"variant": "DHSGFISLDEFRQTWKLFSSHMEI", "note": "[N23E]", "protein stability index": 2.82}
{"variant": "DHSGFISLDEFRQTWKLFSSHMRI", "note": "[N23R]", "protein stability index": 1.31}
{"variant": "DHSGFISLDEFRQTWKLFSSHMGI", "note": "[N23G]", "protein stability index": 1.73}
{"variant": "DHSGFISLDEFRQTWKLFSSHMHI", "note": "[N23H]", "protein stability index": 2.16}
{"variant": "DHSGFISLDEFRQTWKLFSSHMDI", "note": "[N23D]", "protein stability index": 1.69}
{"variant": "DHSGFISLDEFRQTWKLFQSHMNI", "note": "[S19Q]", "protein stability index": 2.02}
{"variant": "DHSGFISLDEFRQTWKLFTSHMNI", "note": "[S19T]", "protein stability index": 2.55}
{"variant": "DHSGFISLDEFRQTWKLFYSHMNI", "note": "[S19Y]", "protein stability index": 1.7}
{"variant": "DHSGFISLDEFRQTWKLFWSHMNI", "note": "[S19W]", "protein stability index": 1.87}
{"variant": "DHSGFISLDEFRQTWKLFRSHMNI", "note": "[S19R]", "protein stability index": 1.7}
{"variant": "DHSGFISLDEFRQTWKLFVSHMNI", "note": "[S19V]", "protein stability index": 2.26}
{"variant": "DHSGFISLDEFRQTWKLFSSHFNI", "note": "[M22F]", "protein stability index": 2.32}
{"variant": "DHSGFISLDEFRQTWKLFSSHGNI", "note": "[M22G]", "protein stability index": 2.17}
{"variant": "DHSGFISLDEFRQTWKLFSSHINI", "note": "[M22I]", "protein stability index": 2.02}
{"variant": "DHSGFISLDEFRQTWKLFSSHNNI", "note": "[M22N]", "protein stability index": 1.62}
{"variant": "DHSGFISLDEFRQTWKLFSSHYNI", "note": "[M22Y]", "protein stability index": 2.21}
{"variant": "DHSGFISLDEFRQTWKLFSSHVNI", "note": "[M22V]", "protein stability index": 1.51}
{"variant": "DHSGFISLDEFRQTWKLFSSHQNI", "note": "[M22Q]", "protein stability index": 1.88}
{"variant": "DHSGFISLDEFRQTWKLFSSHKNI", "note": "[M22K]", "protein stability index": 2.1}
{"variant": "DHSGFISLDEFRQTWKLFSSHWNI", "note": "[M22W]", "protein stability index": 2.49}
{"variant": "DHSGFISLDEFRQTWKLFSSHPNI", "note": "[M22P]", "protein stability index": 2.6}
{"variant": "DHSGFISLDEFRQTWKLFSSHTNI", "note": "[M22T]", "protein stability index": 1.6}
{"variant": "DHSGFISLDEFRQTWKLFSSHRNI", "note": "[M22R]", "protein stability index": 1.91}
{"variant": "DHSGFISLDEFRQTWKLFSSHLNI", "note": "[M22L]", "protein stability index": 1.79}
{"variant": "DHSGFISLDEFRQTWKLFSSHSNI", "note": "[M22S]", "protein stability index": 1.55}
{"variant": "DHSGFISLDEFRQTWKLFSSHHNI", "note": "[M22H]", "protein stability index": 1.61}
{"variant": "DHSGFISLDEFRQTWKLFSSHENI", "note": "[M22E]", "protein stability index": 2.19}
{"variant": "DHSGFISLDEFRQTWKLFSSHANI", "note": "[M22A]", "protein stability index": 1.88}
{"variant": "DHSGFISLDEFRQTWKLFSSHCNI", "note": "[M22C]", "protein stability index": 2.98}
{"variant": "DHSGFISLDEFRQTWKLFSSHDNI", "note": "[M22D]", "protein stability index": 2.41}
{"variant": "DHSGFISLDEFRQTWKLFSSHMNF", "note": "[I24F]", "protein stability index": 1.9}
{"variant": "DHSGFISLDEFRQTWKLFSSHMNR", "note": "[I24R]", "protein stability index": 1.63}
{"variant": "DHSGFISLDEFRQTWKLFSSHMNS", "note": "[I24S]", "protein stability index": 1.58}
{"variant": "DHSGFISLDEFRQTWKLFSSHMNG", "note": "[I24G]", "protein stability index": 1.98}
{"variant": "DHSGFISLDEFRQTWKLFSSHMNP", "note": "[I24P]", "protein stability index": 1.87}
{"variant": "DHSGFISLDEFRQTWKLFSSHMNV", "note": "[I24V]", "protein stability index": 2.01}
{"variant": "DHSGFISLDEFRQTWKLFSSHMND", "note": "[I24D]", "protein stability index": 1.96}
{"variant": "DHSGFISLDEFRQTWKLFSSHMNT", "note": "[I24T]", "protein stability index": 1.89}
{"variant": "DHSGFISLDEFRQTWKLFSSHMNY", "note": "[I24Y]", "protein stability index": 2.04}
{"variant": "DHSGFISLDEFRQTWKLFSSHMNK", "note": "[I24K]", "protein stability index": 1.79}
{"variant": "DHSGFISLDEFRQTWKLFSSHMNW", "note": "[I24W]", "protein stability index": 2.35}
{"variant": "DHSGFISLDEFRQTWKLFSSHMNE", "note": "[I24E]", "protein stability index": 1.99}
{"variant": "DHSGFISLDEFRQTWKLFSSHMNQ", "note": "[I24Q]", "protein stability index": 1.78}
{"variant": "DHSGFISLDEFRQTWKLFSSHMNH", "note": "[I24H]", "protein stability index": 1.7}
{"variant": "DHSGFISLDEFRQTWKLFSSHMNM", "note": "[I24M]", "protein stability index": 2.04}
{"variant": "DHSGFISLDEFRQTWKLFSSHMNA", "note": "[I24A]", "protein stability index": 1.96}
{"variant": "DHSGFISLDEFRQTWKLFSSHMNN", "note": "[I24N]", "protein stability index": 1.8}
{"variant": "DHSGFISLDEFRQTWKLFSSHMNC", "note": "[I24C]", "protein stability index": 1.55}
{"variant": "DHSGFISLDEFRQTWKLFSSHMNL", "note": "[I24L]", "protein stability index": 1.9}
{"variant": "DHSGFISLDEFRQTWKLFSSVMNI", "note": "[H21V]", "protein stability index": 2.84}
{"variant": "DHSGFISLDEFRQTWKLFSSRMNI", "note": "[H21R]", "protein stability index": 2.23}
{"variant": "DHSGFISLDEFRQTWKLFSSLMNI", "note": "[H21L]", "protein stability index": 1.74}
{"variant": "DHSGFISLDEFRQTWKLFSSNMNI", "note": "[H21N]", "protein stability index": 2.01}
{"variant": "DHSGFISLDEFRQTWKLFSSSMNI", "note": "[H21S]", "protein stability index": 1.86}
{"variant": "DHSGFISLDEFRQTWKLFSSFMNI", "note": "[H21F]", "protein stability index": 2.27}
{"variant": "DHSGFISLDEFRQTWKLFSSIMNI", "note": "[H21I]", "protein stability index": 2.54}
{"variant": "DHSGFISLDEFRQTWKLFSSDMNI", "note": "[H21D]", "protein stability index": 1.91}
{"variant": "DHSGFISLDEFRQTWKLFSSMMNI", "note": "[H21M]", "protein stability index": 1.49}
{"variant": "DHSGFISLDEFRQTWKLFSSGMNI", "note": "[H21G]", "protein stability index": 2.22}
{"variant": "DHSGFISLDEFRQTWKLFSSCMNI", "note": "[H21C]", "protein stability index": 2.9}
{"variant": "DHSGFISLDEFRQTWKLFSSTMNI", "note": "[H21T]", "protein stability index": 2.09}
{"variant": "DHSGFISLDEFRQTWKLFSSAMNI", "note": "[H21A]", "protein stability index": 1.63}
{"variant": "DHSGFISLDEFRQTWKLFSSQMNI", "note": "[H21Q]", "protein stability index": 1.06}
{"variant": "DHSGFISLDEFRQTWKLFSSKMNI", "note": "[H21K]", "protein stability index": 1.63}
{"variant": "DHSGFISLDEFRQTWKLFSSWMNI", "note": "[H21W]", "protein stability index": 2.02}
{"variant": "DHSGFISLDEFRQTWKLFSSEMNI", "note": "[H21E]", "protein stability index": 2.06}
{"variant": "DHSGFISLDEFRQTWKLFSSPMNI", "note": "[H21P]", "protein stability index": 2.11}
{"variant": "DHSGFISLDEFRQTWKLFSSYMNI", "note": "[H21Y]", "protein stability index": 1.49}
{"variant": "DHSGFISLDEFRQTWKLFSPHMNI", "note": "[S20P]", "protein stability index": 1.96}
{"variant": "DHSGFISLDEFRQTWKLFSEHMNI", "note": "[S20E]", "protein stability index": 2.43}
{"variant": "DHSGFISLDEFRQTWKLFSHHMNI", "note": "[S20H]", "protein stability index": 1.63}
{"variant": "DHSGFISLDEFRQTWKLFSIHMNI", "note": "[S20I]", "protein stability index": 2.75}
{"variant": "DHSGFISLDEFRQTWKLFSLHMNI", "note": "[S20L]", "protein stability index": 2.03}
{"variant": "DHSGFISLDEFRQTWKLFSDHMNI", "note": "[S20D]", "protein stability index": 2.15}
{"variant": "DHSGFISLDEFRQTWKLFSFHMNI", "note": "[S20F]", "protein stability index": 2.44}
{"variant": "DHSGFISLDEFRQTWKLFSRHMNI", "note": "[S20R]", "protein stability index": 2.16}
{"variant": "DHSGFISLDEFRQTWKLFSMHMNI", "note": "[S20M]", "protein stability index": 2.81}
{"variant": "DHSGFISLDEFRQTWKLFSTHMNI", "note": "[S20T]", "protein stability index": 1.85}
{"variant": "DHSGFISLDEFRQTWKLFSKHMNI", "note": "[S20K]", "protein stability index": 1.81}
{"variant": "DHSGFISLDEFRQTWKLFSVHMNI", "note": "[S20V]", "protein stability index": 3}
{"variant": "DHSGFISLDEFRQTWKLFSAHMNI", "note": "[S20A]", "protein stability index": 2.14}
{"variant": "DHSGFISLDEFRQTWKLFSGHMNI", "note": "[S20G]", "protein stability index": 2.92}
{"variant": "DHSGFISLDEFRQTWKLFSWHMNI", "note": "[S20W]", "protein stability index": 3.78}
{"variant": "DHSGFISLDEFRQTWKLFSNHMNI", "note": "[S20N]", "protein stability index": 1.71}
{"variant": "DHSGFISLDEFRQTWKLFSQHMNI", "note": "[S20Q]", "protein stability index": 1.83}
{"variant": "DHSGFISLDEFRQTWKLFSYHMNI", "note": "[S20Y]", "protein stability index": 2.47}
